Data reported in article PMC10258763.

Biological target: modifying region of human fatty acid synthase (hFASN) isolated by TEV cleavage of the engineered full-length protein (human) (UniProt P49327)
Assay: cryo-EM structure; hFASN modifying region after TEV cleavage, 0.8 mg/mL, 1 mM NADPH, 1 mM DTT; also with 13.75 µM Denifanstat; plunge-frozen on holey gold grids, Titan Krios

modifying region of human fatty acid synthase (hFASN) isolated by TEV cleavage of the engineered full-length protein, sequence (P49327 855-2511, change not shown): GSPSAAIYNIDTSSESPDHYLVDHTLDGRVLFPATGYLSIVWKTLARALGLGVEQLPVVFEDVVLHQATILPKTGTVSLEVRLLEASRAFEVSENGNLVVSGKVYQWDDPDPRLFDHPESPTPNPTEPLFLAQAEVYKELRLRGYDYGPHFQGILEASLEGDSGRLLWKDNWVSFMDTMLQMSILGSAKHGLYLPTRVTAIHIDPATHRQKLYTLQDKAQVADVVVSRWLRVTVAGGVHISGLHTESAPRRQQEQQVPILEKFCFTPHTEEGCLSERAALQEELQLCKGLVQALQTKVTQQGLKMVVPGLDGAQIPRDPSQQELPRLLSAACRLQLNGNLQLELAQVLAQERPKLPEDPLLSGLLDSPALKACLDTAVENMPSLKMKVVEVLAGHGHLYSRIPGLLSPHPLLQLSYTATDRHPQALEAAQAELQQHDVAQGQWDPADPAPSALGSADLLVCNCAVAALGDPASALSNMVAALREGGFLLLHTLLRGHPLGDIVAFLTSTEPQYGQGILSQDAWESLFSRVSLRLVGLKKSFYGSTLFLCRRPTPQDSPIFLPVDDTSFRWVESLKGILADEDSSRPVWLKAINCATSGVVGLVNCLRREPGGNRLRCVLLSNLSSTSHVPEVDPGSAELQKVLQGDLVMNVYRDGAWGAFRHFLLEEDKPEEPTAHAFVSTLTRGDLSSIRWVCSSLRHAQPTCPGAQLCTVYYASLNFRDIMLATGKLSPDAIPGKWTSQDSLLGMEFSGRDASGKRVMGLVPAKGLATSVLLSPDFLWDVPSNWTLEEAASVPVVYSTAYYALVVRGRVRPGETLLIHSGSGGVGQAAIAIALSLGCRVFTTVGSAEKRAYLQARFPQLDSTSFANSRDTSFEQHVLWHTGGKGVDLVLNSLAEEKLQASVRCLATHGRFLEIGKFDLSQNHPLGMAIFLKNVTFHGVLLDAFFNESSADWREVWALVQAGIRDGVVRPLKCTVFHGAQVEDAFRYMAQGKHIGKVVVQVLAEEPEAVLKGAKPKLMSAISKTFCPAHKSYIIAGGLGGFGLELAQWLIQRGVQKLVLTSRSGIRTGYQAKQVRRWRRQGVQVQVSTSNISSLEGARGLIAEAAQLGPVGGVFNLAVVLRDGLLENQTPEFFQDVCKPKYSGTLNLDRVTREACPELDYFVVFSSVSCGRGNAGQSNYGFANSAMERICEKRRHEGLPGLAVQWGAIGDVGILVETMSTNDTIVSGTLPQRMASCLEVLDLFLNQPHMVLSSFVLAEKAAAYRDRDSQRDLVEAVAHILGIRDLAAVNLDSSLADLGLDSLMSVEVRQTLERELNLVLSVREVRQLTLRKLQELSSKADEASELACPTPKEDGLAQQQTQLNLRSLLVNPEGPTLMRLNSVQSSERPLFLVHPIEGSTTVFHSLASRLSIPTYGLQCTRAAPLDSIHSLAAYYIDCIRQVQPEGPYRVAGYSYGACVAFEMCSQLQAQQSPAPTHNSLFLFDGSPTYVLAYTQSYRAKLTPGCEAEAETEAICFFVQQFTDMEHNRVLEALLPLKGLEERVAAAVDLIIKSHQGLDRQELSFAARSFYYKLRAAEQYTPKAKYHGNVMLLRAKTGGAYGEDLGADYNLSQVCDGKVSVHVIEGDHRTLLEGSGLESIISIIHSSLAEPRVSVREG

stoichiometry N: 2
Substance: modifying region of human fatty acid synthase (hFASN) isolated by TEV cleavage of the engineered full-length protein (from UniProt P49327 855-2511) (domain or fragment)
